# In US11021533 (dated 2021):
# B1: ZIKV-88 (antibody, V domains shown)
# VH: QVQLLESGGGVVQPGRSLRLSCVASGLTFSTSAMHWVRQAPGKGLEWVAVISYDGSYKFYADSVRDQFTISRDNSKTTLYLQMDGLTPEDTAVYYCARGYNDDSSGSYWYFDLWGRGTLVTVSS
# VL: QSVLTQPPSVSAAPGQKVTMSCSGSSSNIGSNFVSWYQQLPGTAPKVLIFDNNQRPSGIPDRFSGSKSGTSATLAITGLQPGDEAVYHCGTWDSSLTFAVFGGGTKLTVL
# B2: ZIKV-195 (antibody, V domains shown)
# VH: QVQVVESGGGVVQPGRSLRLSCAASGFTFSSSAMHWVRQAPGKGLEWVAVISYDGSNKYYGDSVKGRFTISRDNSKNTLYLQMHSLRAEDTAVYYCAKDRDAYNTVGYFAYYYGMDVWGQGTLVTVSS
# VL: QSVLTQPPSVSEAPRQRVTISCSGSSSNIGNNAVNWYQQLPGKAPKLLIYYDDLLPSGVSDRFSGSKSGTSASLAISGLQSEDEADYYCAAWDDSLTRYVFGTGTKVTVL
# B3: ZIKV-190 (antibody, V domains shown)
# VH: EVQLVESGGGLIQPGGSLRLSCAASGFTFSSYAMSWVRQAPGKGLEWVSAISGSGGSTYYADSVKGRFTISRDNSKNTLSLQMNSLRAEDTAVYYCARAFYYDFWTFDYWGQGTLVTVSS
# VL: QSALTQPRSVSGSPGQSVTISCTGTSSDVGGYNYVSWYQQHPGKAPKLMIYAVTKRPSGVPDRFSGSKSGNTASLTISGLQAEDEADYYCCSYAGSYTYVVFGGGTKLTVL
# B4: ZIKV-204 (antibody, V domains shown)
# VH: QVTLRESGPALLKPTQTLTLTCTFSGFSLSTNETCVSWIRQPPGKALEWLALIDWDDDQYSSTSLAARLTVSKDTSKNQVVLTMTNVAPVDTATYYCALTRPTLTAQNGDKYYNYYYGMDVWGQGTLVTVSS
# VL: EIVLTQSPGTLSLSPGERATLSCRASQSVSSMYLAWYQQKRGQPPRLLIYGTFNRATGIPDRFSGSGSGTDFTLTISRLEPEDFAVYYCQQYGSSSFTFGGGTKVEIK
# B5: ZIKV-19 (antibody, V domains shown)
# VH: QVQLVQSGPEVKKPGSSVKVSCKASGVSFNTYEISWVRQAPGQGLEWMGRIIPIFATPTYALKFQGRVTITTDESTTTGYMELSSLRSEDTAVYYCAGRPYGPGSWLPLDVWGQGTLVTVSS
# VL: DIVMTQSPSSLSASVGDRVTITCRASQGISSYLAWYQQKPGKLPKLLIYAASTLQSGVPSRFSGSGSGTDFTLTISSLQPEDVAAYYCQKYDSAPFTFGPGTKVDLK
# Target: ZIKV E protein ectodomain (UniProt A0A024B7W1 291-745)
# Sequence (A0A024B7W1 291-745): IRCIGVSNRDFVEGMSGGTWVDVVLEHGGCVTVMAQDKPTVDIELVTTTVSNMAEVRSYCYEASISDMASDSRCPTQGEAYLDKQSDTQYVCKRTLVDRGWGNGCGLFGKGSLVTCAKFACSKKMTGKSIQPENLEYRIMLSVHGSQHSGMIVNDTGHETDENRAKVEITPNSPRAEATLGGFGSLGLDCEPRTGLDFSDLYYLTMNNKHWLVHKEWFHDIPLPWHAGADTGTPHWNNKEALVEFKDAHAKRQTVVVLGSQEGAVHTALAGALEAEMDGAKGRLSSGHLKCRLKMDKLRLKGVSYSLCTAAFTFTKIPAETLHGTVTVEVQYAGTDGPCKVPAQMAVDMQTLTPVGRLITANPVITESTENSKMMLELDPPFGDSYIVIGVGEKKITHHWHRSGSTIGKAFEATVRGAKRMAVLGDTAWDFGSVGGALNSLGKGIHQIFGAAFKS
# Assay: ELISA
row,Binder,EC50 [µg/mL]
1,B1,0.07
2,B2,0.695
3,B3,0.082
4,B4,0.048
5,B5,0.165
